Laboratory results as given in the supplement of paper PMC10567573.

B1: SPRY1 (parent)
chain: WIHRPGCRCKNSNTVYCKLESCPS

Variants of: B1
Assay: protein stability index of a GFP-peptide fusion (GPS, HEK-293T) (PSI 1-6); higher = more stable
Conditions: c terminus: a fixed tail appended
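Also: lentivirally expressed fusions sorted by FACS into six bins by GFP to DsRed ratio, PSI derived from sequencing read proportions per bin multiplied by bin number.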

Variant	protein stability index
WIQRPGCRCKNSNTVYCKLESCPS [H3Q]	2.5
WIRRPGCRCKNSNTVYCKLESCPS [H3R]	2.44
WIWRPGCRCKNSNTVYCKLESCPS [H3W]	1.73
WITRPGCRCKNSNTVYCKLESCPS [H3T]	2.71
WIVRPGCRCKNSNTVYCKLESCPS [H3V]	1.72
WIYRPGCRCKNSNTVYCKLESCPS [H3Y]	1.59
WISRPGCRCKNSNTVYCKLESCPS [H3S]	3.16
WIPRPGCRCKNSNTVYCKLESCPS [H3P]	2.79
WINRPGCRCKNSNTVYCKLESCPS [H3N]	2.4
WIHRPGCRCKNANTVYCKLESCPS [S12A]	3.15
WIHRPGCRCKNMNTVYCKLESCPS [S12M]	2.33
WIHRPGCRCKNRNTVYCKLESCPS [S12R]	2.03
WIHRPGCRCKNWNTVYCKLESCPS [S12W]	1.73
WIHRPGCRCKNCNTVYCKLESCPS [S12C]	3.25
WIHRPGCRCKNPNTVYCKLESCPS [S12P]	1.65
WIHRPGCRCKNVNTVYCKLESCPS [S12V]	2.2
WIHRPGCRCKNENTVYCKLESCPS [S12E]	2.71
WIHRPGCRCKNYNTVYCKLESCPS [S12Y]	1.97
WIHRPGCRCKNNNTVYCKLESCPS [S12N]	2.12
WIHRPGCRCKNHNTVYCKLESCPS [S12H]	1.4
WIHRPGCRCKNGNTVYCKLESCPS [S12G]	3.79
WIHRPGCRCKNFNTVYCKLESCPS [S12F]	2.1
WIHRPGCRCKNQNTVYCKLESCPS [S12Q]	2.14
WIHRPGCRCKNLNTVYCKLESCPS [S12L]	3.01

Variant	protein stability index
WIHRPGCRCKNDNTVYCKLESCPS [S12D]	2.16
WIHRPGCRCKNKNTVYCKLESCPS [S12K]	2.32
WIHRPGCRCKNTNTVYCKLESCPS [S12T]	2.28
WIHRPGCRCKNINTVYCKLESCPS [S12I]	2.4
WIHRPGCRCKNSPTVYCKLESCPS [N13P]	2.36
WIHRPGCRCKNSCTVYCKLESCPS [N13C]	2.1
WIHRPGCRCKNSATVYCKLESCPS [N13A]	1.92
WIHRPGCRCKNSFTVYCKLESCPS [N13F]	2.3
WIHRPGCRCKNSLTVYCKLESCPS [N13L]	2.31
WIHRPGCRCKNSKTVYCKLESCPS [N13K]	1.17
WIHRPGCRCKNSITVYCKLESCPS [N13I]	1.67
WIHRPGCRCKNSMTVYCKLESCPS [N13M]	2.74
WIHRPGCRCKNSDTVYCKLESCPS [N13D]	3.17
WIHRPGCRCKNSHTVYCKLESCPS [N13H]	1.91
WIHRPGCRCKNSETVYCKLESCPS [N13E]	2.64
WIHRPGCRCKNSGTVYCKLESCPS [N13G]	2.23
WIHRPTCRCKNSNTVYCKLESCPS [G6T]	3.09
WIHRPHCRCKNSNTVYCKLESCPS [G6H]	2.06
WIHRPYCRCKNSNTVYCKLESCPS [G6Y]	2.26
WIHRPPCRCKNSNTVYCKLESCPS [G6P]	2.61
WIHRPACRCKNSNTVYCKLESCPS [G6A]	2.15
WIHRPNCRCKNSNTVYCKLESCPS [G6N]	2.37
WIHRPLCRCKNSNTVYCKLESCPS [G6L]	1.97
WIHRPCCRCKNSNTVYCKLESCPS [G6C]	2

Variant	protein stability index
WIHRPFCRCKNSNTVYCKLESCPS [G6F]	1.7
WIHRPKCRCKNSNTVYCKLESCPS [G6K]	2.32
WIHRPQCRCKNSNTVYCKLESCPS [G6Q]	2.16
WIHRPRCRCKNSNTVYCKLESCPS [G6R]	2.12
WIHRPECRCKNSNTVYCKLESCPS [G6E]	3.01
WIHRPVCRCKNSNTVYCKLESCPS [G6V]	1.93
WIHRPICRCKNSNTVYCKLESCPS [G6I]	3.08
WIHRPDCRCKNSNTVYCKLESCPS [G6D]	2.62
WIHRPSCRCKNSNTVYCKLESCPS [G6S]	2.48
WIHRPWCRCKNSNTVYCKLESCPS [G6W]	2.69
WIHRPMCRCKNSNTVYCKLESCPS [G6M]	2.16
WIHRPGCRCKISNTVYCKLESCPS [N11I]	1.86
WIHRPGCRCKYSNTVYCKLESCPS [N11Y]	2.07
WIHRPGCRCKDSNTVYCKLESCPS [N11D]	2.88
WIHRPGCRCKTSNTVYCKLESCPS [N11T]	2.1
WIHRPGCRCKLSNTVYCKLESCPS [N11L]	2.51
WIHRPGCRCKKSNTVYCKLESCPS [N11K]	2.19
WIHRPGCRCKESNTVYCKLESCPS [N11E]	2.62
WIHRPGCRCKWSNTVYCKLESCPS [N11W]	2.6
WIHRPGCRCKMSNTVYCKLESCPS [N11M]	2.66
WIHRPGCRCKFSNTVYCKLESCPS [N11F]	2.42
WIHRPGCRCKHSNTVYCKLESCPS [N11H]	2.52
WIHRPGCRCKVSNTVYCKLESCPS [N11V]	3.49
WIHRPGCRCKQSNTVYCKLESCPS [N11Q]	2.41

Variant	protein stability index
WIHRPGCRCKASNTVYCKLESCPS [N11A]	3.47
WIHRPGCRCKRSNTVYCKLESCPS [N11R]	4.1
WIHRPGCRCKCSNTVYCKLESCPS [N11C]	1.83
WIHRPGCRCKSSNTVYCKLESCPS [N11S]	2.7
WIHRPGCRCKGSNTVYCKLESCPS [N11G]	2.15
WIHRPGCRCKPSNTVYCKLESCPS [N11P]	2.27
WIHQPGCRCKNSNTVYCKLESCPS [R4Q]	4.23
WIHCPGCRCKNSNTVYCKLESCPS [R4C]	2.77
WIHSPGCRCKNSNTVYCKLESCPS [R4S]	3.07
WIHIPGCRCKNSNTVYCKLESCPS [R4I]	2.82
WIHTPGCRCKNSNTVYCKLESCPS [R4T]	2.67
WIHVPGCRCKNSNTVYCKLESCPS [R4V]	3.11
WIHKPGCRCKNSNTVYCKLESCPS [R4K]	2.34
WIHDPGCRCKNSNTVYCKLESCPS [R4D]	3.73
WIHAPGCRCKNSNTVYCKLESCPS [R4A]	2.51
WIHFPGCRCKNSNTVYCKLESCPS [R4F]	2.72
WIHPPGCRCKNSNTVYCKLESCPS [R4P]	3.03
WIHHPGCRCKNSNTVYCKLESCPS [R4H]	3.3
WIHEPGCRCKNSNTVYCKLESCPS [R4E]	3.48
WIHYPGCRCKNSNTVYCKLESCPS [R4Y]	3.18
WIHGPGCRCKNSNTVYCKLESCPS [R4G]	3.95
WIHMPGCRCKNSNTVYCKLESCPS [R4M]	2.85
WIHNPGCRCKNSNTVYCKLESCPS [R4N]	3.43
WIHWPGCRCKNSNTVYCKLESCPS [R4W]	1.97

Variant	protein stability index
WIHLPGCRCKNSNTVYCKLESCPS [R4L]	3.06
WIHRPGCHCKNSNTVYCKLESCPS [R8H]	2.63
WIHRPGCQCKNSNTVYCKLESCPS [R8Q]	3.29
WIHRPGCWCKNSNTVYCKLESCPS [R8W]	2.21
WIHRPGCACKNSNTVYCKLESCPS [R8A]	3
WIHRPGCKCKNSNTVYCKLESCPS [R8K]	2.68
WIHRPGCTCKNSNTVYCKLESCPS [R8T]	2.26
WIHRPGCDCKNSNTVYCKLESCPS [R8D]	2.67
WIHRPGCFCKNSNTVYCKLESCPS [R8F]	2.08
WIHRPGCCCKNSNTVYCKLESCPS [R8C]	2.25
WIHRPGCMCKNSNTVYCKLESCPS [R8M]	2.83
WIHRPGCSCKNSNTVYCKLESCPS [R8S]	2.24
WIHRPGCYCKNSNTVYCKLESCPS [R8Y]	2.2
WIHRPGCPCKNSNTVYCKLESCPS [R8P]	2.4
WIHRPGCICKNSNTVYCKLESCPS [R8I]	2.38
WIHRPGCLCKNSNTVYCKLESCPS [R8L]	2.6
WIHRPGCGCKNSNTVYCKLESCPS [R8G]	2.81
WIHRPGCVCKNSNTVYCKLESCPS [R8V]	2.57
WIHRPGCECKNSNTVYCKLESCPS [R8E]	3.33
WIHRPGCNCKNSNTVYCKLESCPS [R8N]	3.28
WIHRVGCRCKNSNTVYCKLESCPS [P5V]	2.65
WIHREGCRCKNSNTVYCKLESCPS [P5E]	3.08
WIHRNGCRCKNSNTVYCKLESCPS [P5N]	2.39
WIHRTGCRCKNSNTVYCKLESCPS [P5T]	2.37

Variant	protein stability index
WIHRLGCRCKNSNTVYCKLESCPS [P5L]	2.77
WIHRDGCRCKNSNTVYCKLESCPS [P5D]	3.42
WIHRGGCRCKNSNTVYCKLESCPS [P5G]	1.85
WIHRYGCRCKNSNTVYCKLESCPS [P5Y]	3.19
WIHRWGCRCKNSNTVYCKLESCPS [P5W]	1.82
WIHRKGCRCKNSNTVYCKLESCPS [P5K]	2.21
WIHRRGCRCKNSNTVYCKLESCPS [P5R]	3.01
WIHRFGCRCKNSNTVYCKLESCPS [P5F]	1.79
WIHRQGCRCKNSNTVYCKLESCPS [P5Q]	2.38
WIHRMGCRCKNSNTVYCKLESCPS [P5M]	2.15
WIHRIGCRCKNSNTVYCKLESCPS [P5I]	2.11
WIHRCGCRCKNSNTVYCKLESCPS [P5C]	2.02
WIHRHGCRCKNSNTVYCKLESCPS [P5H]	1.91
WIHRSGCRCKNSNTVYCKLESCPS [P5S]	2.27
WIHRAGCRCKNSNTVYCKLESCPS [P5A]	2.02
WIHRPGCRGKNSNTVYCKLESCPS [C9G]	1.73
WIHRPGCRRKNSNTVYCKLESCPS [C9R]	1.45
WIHRPGCRVKNSNTVYCKLESCPS [C9V]	3.41
WIHRPGCRAKNSNTVYCKLESCPS [C9A]	2.19
WIHRPGCRDKNSNTVYCKLESCPS [C9D]	2.07
WIHRPGCRPKNSNTVYCKLESCPS [C9P]	2.4
WIHRPGCRSKNSNTVYCKLESCPS [C9S]	3.7
WIHRPGCRLKNSNTVYCKLESCPS [C9L]	2.69
WIHRPGCRHKNSNTVYCKLESCPS [C9H]	1.85

Variant	protein stability index
WIHRPGCRKKNSNTVYCKLESCPS [C9K]	1.84
WIHRPGCRIKNSNTVYCKLESCPS [C9I]	1.17
WIHRPGCRTKNSNTVYCKLESCPS [C9T]	1.49
WIHRPGCRWKNSNTVYCKLESCPS [C9W]	2.04
WIHRPGCRNKNSNTVYCKLESCPS [C9N]	1.97
WIHRPGCRQKNSNTVYCKLESCPS [C9Q]	2
WIHRPGDRCKNSNTVYCKLESCPS [C7D]	2.28
WIHRPGLRCKNSNTVYCKLESCPS [C7L]	1.72
WIHRPGKRCKNSNTVYCKLESCPS [C7K]	1.49
WIHRPGERCKNSNTVYCKLESCPS [C7E]	1.85
WIHRPGARCKNSNTVYCKLESCPS [C7A]	2.35
WIHRPGSRCKNSNTVYCKLESCPS [C7S]	1.77
WIHRPGQRCKNSNTVYCKLESCPS [C7Q]	1.94
WIHRPGFRCKNSNTVYCKLESCPS [C7F]	2.89
WIHRPGRRCKNSNTVYCKLESCPS [C7R]	3.4
WIHRPGGRCKNSNTVYCKLESCPS [C7G]	1.25
WIHRPGHRCKNSNTVYCKLESCPS [C7H]	2.55
WIHRPGVRCKNSNTVYCKLESCPS [C7V]	1.15
WIHRPGPRCKNSNTVYCKLESCPS [C7P]	1.4
WIHRPGYRCKNSNTVYCKLESCPS [C7Y]	1.45
WIHRPGMRCKNSNTVYCKLESCPS [C7M]	2.14
WIHRPGIRCKNSNTVYCKLESCPS [C7I]	1.52
WIHRPGTRCKNSNTVYCKLESCPS [C7T]	1.82
WIHRPGNRCKNSNTVYCKLESCPS [C7N]	2.37

Variant	protein stability index
WIHRPGWRCKNSNTVYCKLESCPS [C7W]	3
WIHRPGCRCENSNTVYCKLESCPS [K10E]	2.73
WIHRPGCRCPNSNTVYCKLESCPS [K10P]	2.73
WIHRPGCRCNNSNTVYCKLESCPS [K10N]	2.75
WIHRPGCRCCNSNTVYCKLESCPS [K10C]	1.88
WIHRPGCRCFNSNTVYCKLESCPS [K10F]	1.74
WIHRPGCRCHNSNTVYCKLESCPS [K10H]	2.77
WIHRPGCRCRNSNTVYCKLESCPS [K10R]	2.21
WIHRPGCRCANSNTVYCKLESCPS [K10A]	2.33
WIHRPGCRCGNSNTVYCKLESCPS [K10G]	2.75
WIHRPGCRCQNSNTVYCKLESCPS [K10Q]	2.81
WIHRPGCRCSNSNTVYCKLESCPS [K10S]	2.26
WIHRPGCRCMNSNTVYCKLESCPS [K10M]	1.63
WIHRPGCRCWNSNTVYCKLESCPS [K10W]	2.41
WIHRPGCRCVNSNTVYCKLESCPS [K10V]	2
WIHRPGCRCLNSNTVYCKLESCPS [K10L]	1.96
WIHRPGCRCYNSNTVYCKLESCPS [K10Y]	1.82
WIHRPGCRCINSNTVYCKLESCPS [K10I]	2.88
WIHRPGCRCDNSNTVYCKLESCPS [K10D]	3.1
WIHRPGCRCTNSNTVYCKLESCPS [K10T]	3.11
